Assays:
[1] = target: UbcH5b (E2 ubiquitin-conjugating enzyme), P62837
Sequence of UbcH5b (E2 ubiquitin-conjugating enzyme), P62837 (P62837 whole entry, looked up): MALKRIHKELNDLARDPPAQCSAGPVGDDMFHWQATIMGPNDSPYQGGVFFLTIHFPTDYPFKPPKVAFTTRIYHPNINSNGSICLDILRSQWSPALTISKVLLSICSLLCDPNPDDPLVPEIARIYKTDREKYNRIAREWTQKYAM

Sequence of GST-tagged PKN1, Q16512 (Q16512 whole entry, looked up): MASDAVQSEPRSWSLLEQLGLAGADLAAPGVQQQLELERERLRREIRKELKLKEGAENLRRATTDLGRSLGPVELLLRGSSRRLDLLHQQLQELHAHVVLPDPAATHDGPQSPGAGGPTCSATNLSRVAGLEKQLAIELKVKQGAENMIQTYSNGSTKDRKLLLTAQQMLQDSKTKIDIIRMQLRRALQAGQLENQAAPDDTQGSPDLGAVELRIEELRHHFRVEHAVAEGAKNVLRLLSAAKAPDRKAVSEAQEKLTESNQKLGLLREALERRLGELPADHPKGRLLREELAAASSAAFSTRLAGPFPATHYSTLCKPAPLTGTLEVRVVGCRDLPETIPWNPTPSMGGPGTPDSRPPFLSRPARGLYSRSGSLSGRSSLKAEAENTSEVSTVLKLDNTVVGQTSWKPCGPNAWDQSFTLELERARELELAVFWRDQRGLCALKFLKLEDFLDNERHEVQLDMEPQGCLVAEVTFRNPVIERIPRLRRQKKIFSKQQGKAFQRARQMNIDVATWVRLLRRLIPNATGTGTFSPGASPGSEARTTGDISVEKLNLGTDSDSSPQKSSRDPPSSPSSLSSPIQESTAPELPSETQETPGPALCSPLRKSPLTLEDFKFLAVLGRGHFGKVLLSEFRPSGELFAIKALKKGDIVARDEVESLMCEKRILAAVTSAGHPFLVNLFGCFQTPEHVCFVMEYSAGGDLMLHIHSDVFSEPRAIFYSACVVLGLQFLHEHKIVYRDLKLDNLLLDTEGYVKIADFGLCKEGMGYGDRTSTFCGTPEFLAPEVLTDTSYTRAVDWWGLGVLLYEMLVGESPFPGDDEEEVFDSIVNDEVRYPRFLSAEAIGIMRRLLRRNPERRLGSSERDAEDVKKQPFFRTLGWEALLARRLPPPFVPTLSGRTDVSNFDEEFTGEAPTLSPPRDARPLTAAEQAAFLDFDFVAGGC

| Protein | in vitro ubiquitination assay, anti-HA western blot [1] | further results |
| --- | --- | --- |
| recombinant IpaH7.8 from Shigella flexneri (protein) MFSVNNTHSSVSCSPSINSNSTSNEHYLRILTEWEKNSSPGEERGIAFNRLSQCFQNQEAVLNLSDLNLTSLPELPKHISALIVENNKLTSLPKLPAFLKELNADNNRLSVIPELPESLTTLSVRSNQLENLPVLPNHLTSLFVENNRLYNLPALPEKLKFLHVYYNRLTTLPDLPDKLEILCAQRNNLVTFPQFSDRNNIRQKEYYFHFNQITTLPESFSQLDSSYRINISGNPLSTRVLQSLQRLTSSPDYHGPQIYFSMSDGQQNTLHRPLADAVTAWFPENKQSDVSQIWHAFEHEEHANTFSAFLDRLSDTVSARNTSGFREQVAAWLEKLSASAELRQQSFAVAADATESCEDRVALTWNNLRKTLLVHQASEGLFDNDTGALLSLGREMFRLEILEDIARDKVRTLHFVDEIEVYLAFQTMLAEKLQLSTAVKEMRFYGVSGVTANDLRTAEAMVRSREENEFTDWFSLWGPWHAVLKRTEADRWAQAEEQKYEMLENEYSQRVADRLKASGLSGDADAEREAGAQVMRETEQQIYRQLTDEVLALRLSENGSRLHHSHHHHHH | have the ability to remove ubiquitin from ubiquitinated UbcH5b in order to form poly-ubiquitin chains of the HA-tagged ubiquitin | – |
| recombinant IpaH2.5 from Shigella flexneri (protein) MIKSTNIQVIGSGIMHQINNIHSLTLFSLPVSLSPSCNEYYLKVWSEWEKNGTPGEQRNIAFNRLKICLQNQEAELNLSELDLKTLPDLPPQITTLEIRKNLLTHLPDLPPMLKVIHAQFNQLESLPALPETLEELNAGDNKIKELPFLPENLTHLRVHNNRLHILPLLPPELKLLVVSGNRLDSIPPFPDKLEGLALANNFIEQLPELPFSMNRAVLMNNNLTTLPESVLRLAQNAFVNVAGNPLSGHTMRTLQQITTGPDYSGPRIFFSMGNSATISAPEHSLADAVTAWFPENKQSDVSQIWHAFEHEEHANTFSAFLDRLSDTVSARNTSGFREQVAAWLEKLSASAELRQQSFAVAADATESCEDRVALTWNNLRKTLLVHQASEGLFDNDTGALLSLGREMFRLEILEDIARDKVRTLHFVDEIEVYLAFQTMLAEKLQLSTAVKEMRFYGVSGVTANDLRTAEAMVRSREENEFTDWFSLWGPWHAVLKRTEADRWAQAEEQKYEMLENEYSQRVADRLKASGLSGDADAEREAGAQVMRETEQQIYRQLTDEVLAHHHHHH | have the ability to remove ubiquitin from ubiquitinated UbcH5b in order to form poly-ubiquitin chains of the HA-tagged ubiquitin | – |
| recombinant IpaH9.8 from Shigella flexneri (protein) MLPINNNFSLPQNSFYNTISGTYADYFSAWDKWEKQALPGEERDEAVSRLKECLINNSDELRLDRLNLSSLPDNLPAQITLLNVSYNQLTNLPELPVTLKKLYSASNKLSELPVLPPALESLQVQHNELENLPALPDSLLTMNISYNEIVSLPSLPQALKNLRATRNFLTELPAFSEGNNPVVREYFFDRNQISHIPESILNLRNECSIHISDNPLSSHALQALQRLTSSPDYHGPRIYFSMSDGQQNTLHRPLADAVTAWFPENKQSDVSQIWHAFEHEEHANTFSAFLDRLSDTVSARNTSGFREQVAAWLEKLSASAELRQQSFAVAADATESCEDRVALTWNNLRKTLLVHQASEGLFDNDTGALLSLGREMFRLEILEDIARDKVRTLHFVDEIEVYLAFQTMLAEKLQLSTAVKEMRFYGVSGVTANDLRTAEAMVRSREENEFTDWFSLWGPWHAVLKRTEADRWAQAEEQKYEMLENEYPQRVADRLKASGLSGDADAEREAGAQVMRETEQQIYRQLTDEVLALRLFENGSQLHHSHHHHHH | have the ability to remove ubiquitin from ubiquitinated UbcH5b in order to form poly-ubiquitin chains of the HA-tagged ubiquitin | – |
| recombinant SspH1 of Salmonella enterica serovar Typhimurium with C-terminal 6x His-tag (protein) MFNIRNTQPSVSMQAIAGAAAPEASPEEIVWEKIQVFFPQENYEEAQQCLAELCHPARGMLPDHISSQFARLKALTFPAWEENIQCNRDGINQFCILDAGSKEILSITLDDAGNYTVNCQGYSEAHDFIMDTEPGEECTEFAEGASGTSLRPATTVSQKAAEYDAVWSKWERDAPAGESPGRAAVVQEMRDCLNNGNPVLNVGASGLTTLPDRLPPHITTLVIPDNNLTSLPELPEGLRELEVSGNLQLTSLPSLPQGLQKLWAYNNWLASLPTLPPGLGDLAVSNNQLTSLPEMPPALRELRVSGNNLTSLPALPSGLQKLWAYNNRLTSLPEMSPGLQELDVSHNQLTRLPQSLTGLSSAARVYLDGNPLSVRTLQALRDIIGHSGIRIHFDMAGPSVPREARALHLAVADWLTSAREGEAAQADRWQAFGLEDNAAAFSLVLDRLRETENFKKDAGFKAQISSWLTQLAEDAALRAKTFAMATEATSTCEDRVTHALHQMNNVQLVHNAEKGEYDNNLQGLVSTGREMFRLATLEQIAREKAGTLALVDDVEVYLAFQNKLKESLELTSVTSEMRFFDVSGVTVSDLQAAELQVKTAENSGFSKWILQWGPLHSVLERKVPERFNALREKQISDYEDTYRKLYDEVLKSSGLVDDTDAERTIGVSAMDSAKKEFLDGLRALVDEVLGSYLTARWRLNHHHHHH | – | in vitro ubiquitination assay, western blot [1]: recombinant SspH1 has the ability to remove ubiquitin from ubiquitinated UbcH5B, to autoubiquitinate, and to polyubiquitinate Ha-tagged ubiquitin; in vitro ubiquitination assay, anti-PKN1 immunoblot (GST-tagged PKN1, Q16512): When the reaction was performed in the presence of SspH1 and PKN1 in vitro, anti-PKN1 antibodies detected an additional species migrating at a size >148 kDa; in vitro ubiquitination assay, immunoblots with anti-HA, anti-PKN1 and anti-His antibodies (GST-tagged PKN1, Q16512): recombinant SspH1 ubiquitinates PKN1 in vitro |
| recombinant IpaH1.4 from Shigella flexneri (protein) MIKSTNIQAIGSGIMHQINNVYSLTPLSLPMELTPSCNEFYLKTWSEWEKNGTPGEQRNIAFNRLKICLQNQEAELNLSELDLKTLPDLPPQITTLEIRKNLLTHLPDLPPMLKVIHAQFNQLESLPALPETLEELNAGDNKIKELPFLPENLTHLRVHNNRLHILPLLPPELKLLVVSGNRLDSIPPFPDKLEGLALANNFIEQLPELPFSMNRAVLMNNNLTTLPESVLRLAQNAFVNVAGNPLSGHTMRTLQQITTGPDYSGPRIFFSMGNSATISAPEHSLADAVTAWFPENKQSDVSQIWHAFEHEEHANTFSAFLDRLSDTVSARNTSGFREQVAAWLEKLSASAELRQQSFAVAADATESCEDRVALTWNNLRKTLLVHQASEGLFDNDTGALLSLGREMFRLEILEDIARDKVRTLHFVDEIEVYLAFQTMLAEKLQLSTAVKEMRFYGVSGVTANDLRTAEAMVRSREENEFTDWFSLWGPWHAVLKRTEADRWAQAEEQKYEMLENEYSQRVADRLKASGLSGDADAEREAGAQVMRETEQQIYRQLTDEVLALRLSENGSNHIAHHHHHH | have the ability to remove ubiquitin from ubiquitinated UbcH5b in order to form poly-ubiquitin chains of the HA-tagged ubiquitin | – |
| recombinant SlrP from Salmonella enterica serovar Typhimurium (protein) MFNITNIQSTARHQSISNEASTEVPLKEEIWNKISAFFSSEHQVEAQNCIAYLCHPPETASPEEIKSKFECLRMLAFPAYADNIQYSRGGADQYCILSENSQEILSIVFNTEGYTVEGGGKSVTYTRVTESEQASSASGSKDAVNYELIWSEWVKEAPAKEAANREEAVQRMRDCLKNNKTELRLKILGLTTIPAYIPEQITTLILDNNELKSLPENLQGNIKTLYANSNQLTSIPATLPDTIQEMELSINRITELPERLPSALQSLDLFHNKISCLPENLPEELRYLSVYDNSIRTLPAHLPSEITHLNVQSNSLTALPETLPPGLKTLEAGENALTSLPASLPPELQVLDVSKNQITVLPETLPPTITTLDVSRNALTNLPENLPAALQIMQASRNNLVRLPESLPHFRGEGPQPTRIIVEYNPFSERTIQNMQRLMSSVDYQGPRVLFAMGDFSIVRVTRPLHQAVQGWLTSLEEEDVNQWRAFEAEANAAAFSGFLDYLGDTQNTRHPDFKEQVSAWLMRLAEDSALRETVFIIAMNATISCEDRVTLAYHQMQEATLVHDAERGAFDSHLAELIMAGREIFRLEQIESLAREKVKRLFFIDEVEVFLGFQNQLRESLSLTTMTRDMRFYNVSGITESDLDEAEIRIKMAENRDFHKWFALWGPWHKVLERIAPEEWREMMAKRDECIETDEYQSRVNAELEDLRIADDSDAERTTEVQMDAERAIGIKIMEEINQTLFTEIMENILLKKEVSSLMSAYWRHHHHHH | have the ability to remove ubiquitin from ubiquitinated UbcH5b in order to form poly-ubiquitin chains of the HA-tagged ubiquitin | – |
| recombinant IpaH4.5 from Shigella flexneri (protein) MKPINNHSFFRSLCGLSCISRLSVEEQCTRDYHRIWDDWAREGTTTENRIQAVRLLKICLDTREPVLNLSLLKLRSLPPLPLHIRELNISNNELISLPENSPLLTELHVNGNNLNILPTLPSQLIKLNISFNRNLSCLPSLPPYLQSLSARFNSLETLPELPSTLTILRIEGNRLTVLPELPHRLQELFVSGNRLQELPEFPQSLKYLKVGENQLRRLSRLPQELLALDVSNNLLTSLPENIITLPICTNVNISGNPLSTHVLQSLQRLTSSPDYHGPQIYFSMSDGQQNTLHRPLADAVTAWFPENKQSDVSQIWHAFEHEEHANTFSAFLDRLSDTVSARNTSGFREQVAAWLEKLSASAELRQQSFAVAADATESCEDRVALTWNNLRKTLLVHQASEGLFDNDTGALLSLGREMFRLEILEDIARDKVRTLHFVDEIEVYLAFQTMLAEKLQLSTAVKEMRFYGVSGVTANDLRTAEAMVRSREENEFTDWFSLWGPWHAVLKRTEADRWAQAEEQKYEMLENEYSQRVADRLKASGLSGDADAEREAGAQVMRETEQQIYRQLTDEVLAHHHHHH | have the ability to remove ubiquitin from ubiquitinated UbcH5b in order to form poly-ubiquitin chains of the HA-tagged ubiquitin | – |

Source: US20200038493
